Laboratory results reported in PMC5993284, “Peptide inhibitors of the anaphase promoting-complex that cause sensitivity to microtubule poison” (PLoS ONE, 2018).
Ends that are not written are not given here. * marks the point of attachment. Biotin = O=C1N[C@H]2[C@H](CS[C@H]2CCCCC(=O)*)N1

What was measured:
[1] = system: Cdc20; test: Avidin-bead pull-down of full-length Cdc20 made by IVT/T; assay type: binding, Saccharomyces cerevisiae; conditions: biotinylated form; Avidin beads; rabbit reticulocyte lysate; Western blot; n = 3
Method: To determine if Tyc1 could interact directly with the APC/C a pure N-terminal biotinylated form of Tyc1 was incubated with purified APC/C. […] Thus, like Mad2-binding motif peptides, unexpectedly Tyc1 protein binds to and inhibits APC/C when present in excess leading to a microtubule poison sensitivity phenotype in vivo.
Supplementary file pone.0198930.s008.tif: S8 Fig Tyc1 can pull-down recombinant Cdc20 synthesized by IVT/T. A) A Western blot displaying the detection of Cdc20 protein made by IVT/T (left), where the epitope tag is at the N-terminus of the ORF. The IVT/T reaction yields a series of protein products that display full-length and lower molecular weights, potentially the result of pre-mature translation termination. An Avidin-bead pull-down using a biotinylated-Tyc1 (Bio-Tyc1) is shown (right). […] B) An Avidin-bead pull-down using a biotinylated-Tyc1-mut1 (Bio-Tyc1-mut1) (middle) and biotinylated-Tyc1-mut2 (Bio-Tyc1-mut2) are shown (right). […] (TIF) Click here for additional data file.

[2] = molecular target: Anaphase Promoting-Complex/Cyclosome (APC/C) isolated through Cdc16-TAP and kept on IgG beads (S. cerevisiae | S. cerevisiae (endogenous in yeast)) (UniProt P09798)
[3] = molecular target: Anaphase Promoting-Complex/Cyclosome (APC/C) isolated through Cdc16-TAP and kept on IgG beads (S. cerevisiae | S. cerevisiae (endogenous in yeast)) (UniProt P09798); remark: listed apart in the source
[4] = system: APC/C; test: APC/C activity promoted by mutant Cdc20 alleles (Pds1 remaining); assay type: biochemical, Saccharomyces cerevisiae
Method: (§1) The production of Cdc20 or Cdh1 was prepared by IVT/T reactions, where 16 μL of rabbit reticulocyte lysate, 20 μM L-methionine, 0.4 μg of plasmid DNA, and a volume of nuclease-free ddH2O for a total volume of 20 μL. This freshly synthesized Cdc20 or Cdh1 protein was used directly in all APC/C assays after a 1-hour synthesis reaction at room temperature. The APC/C was purified for enzyme assays from 1 mL of TAP-tagged Cdc16 yeast extract (SCSY51) where extract was mixed with 50 μL 50:50 slurry magnetic beads (Invitrogen, Norway) for 2 hours at 4 °C. After incubation, the beads were washed with 3 mL APC/C wash buffer (200 mM of HEPES, 150 mM of NaCl and 10% (v/v) of glycerol). APC/C bound to IgG magnetic beads was used directly in the enzyme assays.
(§2) APC/C assays were performed by adding the reaction contents in following order: 4.3 μL of QAH buffer, 20 μL of rabbit reticulocyte lysate containing Cdc20 or Cdh1 with or without an additional volume of recombinant checkpoint protein(s) or inhibitor peptides, 2.4 μL ubiquitin aldehyde (Boston Biochem, USA), APC/C, 16 μL pre-charged E1/E2/ATP/ubiquitin mix, and 13.3 μL of ^35S-Pds1 with QAH buffer (20 mM HEPES at pH 8.0, 100 mM NaCl, and 1 mM MgCl2). The E1/E2/ATP/ubiquitin mix were pre-charged by mixing 1 μL of E1 (Boston Biochem, USA), 1 μL of E2 (Boston Biochem, USA), 14.4 μL of ATP, 14.4 μL of […] (Boston Biochem, USA), and 17.2 μL of QAH buffer and incubated for 15 minutes at room temperature. Approximately 15 μL of samples were taken out at each time point, and the reaction was stopped by the addition of 2x protein sample buffer (125 mM Tris-HCl pH 6.8, 4% SDS, 20% glycerol, and 0.002% bromophenol blue, with 10% (final v/v) 2-mercaptoethanol added in fresh directly before use).
For APC/C activity assays dried-gels were exposed on a phosphor screen cassette to detect radio-labeled protein. The phosphor screen was scanned by a Typhoon phosphor-imager (GE Healthcare Bio-Sciences, USA), and radio-labeled protein bands in gels were quantified by employing the ImageQuant software (GE Healthcare Bio-Sciences, USA) according to the manufacturer’s protocols. Data were expressed as mean ± standard deviation, and was analyzed using Student’s t-test. Graphs were created using Kaliedograph 4.0 (Synergy Software, USA) and estimates of best-fit curves of a 4-parameter Hill equation were generated to obtain estimates for the median inhibitory concentrations (IC50) and Hill coefficients (Hc) using IgorPro 6.01 (Wavemetrics, USA).
By sequence alignment and amino acid homology alone, the budding yeast KILR-motif may be defined as 201-RILQ-204 (Fig 1A). However, the next residue, Tyrosine Y205 had previously been isolated in a genetic screen for spindle checkpoint by-pass alleles of Cdc20 [21], indicating this Y205 residue may be a target of the spindle checkpoint inhibition, and thus might also be a functional KILR-motif residue that contributes to APC/C activation. To clarify this possibility, we took the initial step to characterize several of the previously isolated spindle checkpoint by-pass mutant alleles of Cdc20 [21], and also Cdc20 mutants in the two highly conserved residues within the Mad2-binding motif, the aspartic acid at D197 of unknown function and the highly conserved Leucine L203 within the KILR-motif based on sequence alignment and homology. […]

[5] = system: APC/C; test: APC/C activity promoted by mutant Cdc20 alleles in the presence of Mad2 (Pds1 remaining); assay type: biochemical, Saccharomyces cerevisiae; conditions: 5.0 μM Mad2, n = 3
Method: as §1, §2
For inhibitor titration and time-course experiments, recombinant Bub3, Mad2, Mad3, and the Mad3-Bub3 complex were expressed and purified as previously described. Inhibitory peptides were synthesized by standard procedures and purified to 99% purity by HPLC (Kelowna International Scientific Inc., Taiwan). For inhibition of APC/C the co-factor Cdc20 or Cdh1 was made fresh by IVT/T, and pure recombinant checkpoint proteins or inhibitor peptides were added to the IVT/T mixture and incubated for an additional hour at room temperature. In titrations, a dilution series of the checkpoint protein(s) were made before incubation with the Cdc20 co-factor. […]
Our first goal was to measure the ability of the mutant alleles to promote APC/C activity in vitro. To ensure any observed change in APC/C activity reflected a change in function, and not a change in the amount of Cdc20 co-factor protein produced by IVT/T, the amounts of Cdc20 protein produced by IVT/T was measured, and no significant difference was observed (S4 Table). […]

[6] = molecular target: Anaphase Promoting-Complex/Cyclosome (APC/C) isolated through Cdc16-TAP and kept on IgG beads (S. cerevisiae | S. cerevisiae (endogenous in yeast)) (UniProt P09798); remark: listed apart in the source

Anaphase Promoting-Complex/Cyclosome (APC/C) isolated through Cdc16-TAP and kept on IgG beads (S. cerevisiae | S. cerevisiae (endogenous in yeast)), sequence (P09798 whole entry, looked up, one chain of several): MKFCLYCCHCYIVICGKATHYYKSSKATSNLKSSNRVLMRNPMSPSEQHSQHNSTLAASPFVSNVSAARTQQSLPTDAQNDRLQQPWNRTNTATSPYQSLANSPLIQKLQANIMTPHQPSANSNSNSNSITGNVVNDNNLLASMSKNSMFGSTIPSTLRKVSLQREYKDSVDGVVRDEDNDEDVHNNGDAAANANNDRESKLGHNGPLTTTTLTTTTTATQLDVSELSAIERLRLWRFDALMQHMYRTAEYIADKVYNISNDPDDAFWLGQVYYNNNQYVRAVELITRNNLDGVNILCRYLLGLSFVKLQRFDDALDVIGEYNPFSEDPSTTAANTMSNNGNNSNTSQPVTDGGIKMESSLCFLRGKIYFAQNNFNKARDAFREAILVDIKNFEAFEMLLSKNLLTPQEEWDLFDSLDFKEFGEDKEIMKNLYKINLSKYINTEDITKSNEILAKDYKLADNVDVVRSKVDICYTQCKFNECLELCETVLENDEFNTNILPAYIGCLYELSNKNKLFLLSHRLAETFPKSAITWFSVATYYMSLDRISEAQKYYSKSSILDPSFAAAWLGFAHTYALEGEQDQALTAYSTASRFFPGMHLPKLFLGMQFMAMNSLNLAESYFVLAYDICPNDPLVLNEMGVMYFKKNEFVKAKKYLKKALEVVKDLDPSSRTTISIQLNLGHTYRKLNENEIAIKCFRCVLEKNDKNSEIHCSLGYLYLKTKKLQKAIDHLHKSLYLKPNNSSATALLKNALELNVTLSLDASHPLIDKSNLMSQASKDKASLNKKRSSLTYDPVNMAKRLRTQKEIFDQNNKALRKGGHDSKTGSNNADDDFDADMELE

Bio-Tyc1: biotinylated-Tyc1 (Biotin-MKVLDDWFSRKFSKAVHGNNHGTISLSTLSYIRVHKLVK)
pull-down of full-length Cdc20 from IVT/T lysate (in words) [1]: Both full-length and lower molecular weight forms of Cdc20 were observed

non-biotinylated Tiny Yeast Comet 1 (Tyc1) (natural protein)
inhibition of APC/C^Cdc20 activity in vitro (35S-Pds1 substrate), titration of Tyc1; blocks the binding of co-factor Cdc20 to APC/C [2]: 50 µM

non-biotinylated PQ65 (Cdc20 169–232) (from UniProt P26309 169-232) (peptide)
inhibition of APC/C^Cdc20 activity in vitro (35S-Pds1 substrate), serial dilution of PQ65; blocks the binding of co-factor Cdc20 to APC/C [3]: < 50 µM

B1: Cdc20-127 (Y205N): spindle checkpoint by-pass mutant allele of Cdc20, Y205N (protein, UniProt P26309 1-610, looked up, variant Y205N)
APC/C activator protein CDC20: MPESSRDKGNAAISGNRSVLSIASPTKLNILSSDWSRNQGKVSKNSLKRSSSLNIRNSKRPSLQASANSIYSRPKITIGAPPLIRRDSSFFKDEFDAKKDKATFSAYSSRSYPTIGSESVVSQTSLSQPTTSREVDEQFTVAADRYIPILQGASQNKVDPETLHEALPPPNASPISHLRAQTKIVFKQNVAEACGLDMNKRILQNMPEPPKCSSLRQKSYIMKKRTHYSYQQEQKIPDLIKLRKINTNPERILDAPGFQDDFYLNLLSWSKKNVLAIALDTALYLWNATTGDVSLLTDFENTTICSVTWSDDDCHISIGKEDGNTEIWDVETMSLIRTMRSGLGVRIGSLSWLDTLIATGSRSGEIQINDVRIKQHIVSTWAEHTGEVCGLSYKSDGLQLASGGNDNTVMIWDTRTSLPQFSKKTHTAAVKALSWCPYSPNILASGGGQTDKHIHFWNSITGARVGSINTGSQVSSLHWGQSHTSTNGGMMNKEIVATGGNPENAISVYNYETKFKVAEVVHAHEARICCSQLSPDGTTLATVGGDENLKFYKIFDPRCTGRSREDGLMDGMLGLIGKEGCRTNDKENRSKNSSEIHTRRPSSTSQYLIR
ability of mutant Cdc20 to promote APC/C activity (in words) ([4]; vs wild type Cdc20, n = 3): consistently displayed a decrease in APC activity
ability of mutant Cdc20 to promote APC/C activity (in words) ([4]; vs wild type Cdc20, n = 3, listed as Cdc20-127): displayed decreased APC/C activity
ability of mutant Cdc20 to promote APC/C activity in the presence of Mad2 (in words) [5]: consistently displayed APC activity in the presence of Mad2
ability of mutant Cdc20 to promote APC/C activity in the presence of Mad2 (in words) ([5]; listed as Cdc20-127): promote APC/C activity at the same level as control reactions even in the presence of 5.0 μM Mad2

DMNKRILQYMPEPPKCSSLRQKSYIMKKRTHYSYQQ (not fully specified) [non-biotinylated DQ36 (Cdc20 197–232)]
inhibition of APC/C^Cdc20 activity in vitro (35S-Pds1 substrate), titration of DQ36; blocks the binding of co-factor Cdc20 to APC/C [6]: 150 µM
